Source: US7935785B2, “Selective substrates for matrix metalloproteinases” (Sanford-Burnham Medical Research Institute, priority 2001, dated 2011)

What was measured:
MMP-9 = molecular target: T1, MMP-9 (Homo sapiens, UniProt P14780); assay: Cleavage of recombinant Eph receptor-Fc fusion proteins, SDS-PAGE; format: biochemical; settings: 1.8 μM fusion protein, 280 nM MMP-9, 4 hours, 37° C.
T1 construct: a recombinant form of the catalytic domain of MMP-9 expressed in HEK 293 cells; made in house; host or cells: HEK 293 cells
Protocol: (§1) Recombinant fusion proteins between EphB1, EphB2 and the Fc domain of IgG were purchased from R&D Systems Inc. In these constructs, the extracellular domain of rat EphB1 (amino acid residues 1-538) and mouse EphB2 (amino acid residues 1-548) are fused to the Fc region of human IgG via a short polypeptide linker. The fusion proteins (1.8 μM) were incubated for 4 hours at 37° C. with 280 nM of either MMP-2 or MMP-9. Following incubation, samples were resolved by 10% SDS-PAGE, and samples were visualized by Coomassie staining. The N-terminus of the cleaved Eph B1 was determined by automated Edman degradation of protein blotted to PVDF membranes.
(§2) The Eph B1 and Eph B2 fusion proteins were incubated with equimolar amounts (280 nM) of MMP-2 and MMP-9 for four hours. The extent of hydrolysis was gauged by SDS-PAGE (FIG. 3). […] The extent of cleavage by MMP-9 was far lower (lane 3). […] The site of hydrolysis within Eph B1 was determined by sequencing the N-terminus of one of the released fragments. […] This is one of the predicted cleavage sites in EphB1. These findings illustrate that motifs found to be selective for MMP-2 by substrate phage display, can act as selective substrates within the context of whole proteins. This experiment also illustrates that the three dimensional conformation of the putative cleavage site will also control the extent of hydrolysis.

MMP-2 = molecular target: T2, MMP-2 (Homo sapiens, UniProt P08253); assay: as above; format: biochemical; settings: 1.8 μM fusion protein, 280 nM MMP-2, 4 hours, 37° C.
T2 construct: the cDNA encoding the catalytic domain of MMP-2 was generated by PCR; made in house; host or cells: HEK 293 cells
Protocol: as §1, §2

T1 sequence (P14780 94-444 limits assumed): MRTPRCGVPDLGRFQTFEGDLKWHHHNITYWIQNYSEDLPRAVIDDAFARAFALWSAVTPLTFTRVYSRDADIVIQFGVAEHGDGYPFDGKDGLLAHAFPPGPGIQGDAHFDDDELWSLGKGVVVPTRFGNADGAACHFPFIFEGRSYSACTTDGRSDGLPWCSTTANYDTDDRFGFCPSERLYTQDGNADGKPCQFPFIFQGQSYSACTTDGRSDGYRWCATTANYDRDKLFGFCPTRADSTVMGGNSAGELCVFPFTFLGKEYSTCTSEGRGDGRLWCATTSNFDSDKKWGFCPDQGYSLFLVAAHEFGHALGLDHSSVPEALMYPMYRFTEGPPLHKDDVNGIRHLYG
T2 sequence (P08253 110-465 limits assumed): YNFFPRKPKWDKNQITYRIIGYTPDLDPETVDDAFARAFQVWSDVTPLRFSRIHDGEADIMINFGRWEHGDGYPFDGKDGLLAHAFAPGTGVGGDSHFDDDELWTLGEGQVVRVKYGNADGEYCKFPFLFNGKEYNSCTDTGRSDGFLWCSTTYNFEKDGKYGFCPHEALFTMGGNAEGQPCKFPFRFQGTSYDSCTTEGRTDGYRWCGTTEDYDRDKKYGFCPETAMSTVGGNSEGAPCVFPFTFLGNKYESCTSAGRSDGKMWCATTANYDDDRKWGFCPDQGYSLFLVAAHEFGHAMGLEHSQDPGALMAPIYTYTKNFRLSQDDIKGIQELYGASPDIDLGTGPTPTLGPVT

extent of hydrolysis by MMP-9 (SDS-PAGE) (MMP-9): Neither protease cleaved | extent of hydrolysis by MMP-2 (SDS-PAGE) (MMP-2): Neither protease cleaved
B1: Eph B2 fusion protein: extracellular domain of mouse EphB2 (residues 1-548) fused to Fc region of human IgG, R&D Systems (protein)
chain: VEETLMDSTTATAELGWMVHPPSGWEEVSGYDENMNTIRTYQVCNVFESSQNNWLRTKFIRRRGAHRIHVEMKFSVRDCSSIPSVPGSCKETFNLYYYEADFDLATKTFPNWMENPWVKVDTIAADESFSQVDLGGRVMKINTEVRSFGPVSRNGFYLAFQDYGGCMSLIAVRVFYRKCPRIIQNGAIFQETLSGAESTSLVAARGSCIANAEEVDVPIKLYCNGDGEWLVPIGRCMCKAGFEAVENGTVCRGCPSGTFKANQGDEACTHCPINSRTTSEGATNCVCRNGYYRADLDPLDMPCTTIPSAPQAVISSVNETSLMLEWTPPRDSGGREDLVYNIICKSCGSGRGACTRCGDNVQYAPRQLGLTEPRIYISDLLAHTQYTFEIQAVNGVTDQSPFSPQFASVNITTNQAAPSAVSIMHQVSRTVDSITLSWSQPDQPNGVILDYELQYYEKELSEYNATAIKSPTNTVTVQGLKAGAIYVFQVRARTVAGYGRYSGKMYFQTMTEAEYQTSIKEKLPLIVGSS
modifications: left off: small tags and cut ends; a dimerising Fc or GST
notes: extracellular domain of mouse EphB2 (residues 1-548) fused to Fc region of human IgG, R&D Systems
